Results taken from paper doi:10.1101/2023.03.27.534416 (bioRxiv, 2023).

Molecular target: the molecule itself
Assay: MST

B1: MRE11 structured-domain (1-411 aa) (domain or fragment, UniProt P49959 1-411, looked up)
chain: MSTADALDDENTFKILVATDIHLGFMEKDAVRGNDTFVTLDEILRLAQENEVDFILLGGDLFHENKPSRKTLHTCLELLRKYCMGDRPVQFEILSDQSVNFGFSKFPWVNYQDGNLNISIPVFSIHGNHDDPTGADALCALDILSCAGFVNHFGRSMSVEKIDISPVLLQKGSTKIALYGLGSIPDERLYRMFVNKKVTMLRPKEDENSWFNLFVIHQNRSKHGSTNFIPEQFLDDFIDLVIWGHEHECKIAPTKNEQQLFYISQPGSSVVTSLSPGEAVKKHVGLLRIKGRKMNMHKIPLHTVRQFFMEDIVLANHPDIFNPDNPKVTQAIQSFCLEKIEEMLENAERERLGNSHQPEKPLVRLRVDYSGGFEPFSVLRFSQKFVDRVANPKDIIHFFRHREQKEKTGEE
modifications: amine-reactive AlexaFluor-647 dye on the labelled copy; the titrated copy is unlabelled
  Kd: 370 ± 80 nM
